This is an account of results in patent US20040248211A1, “ICAM-related protein” (priority 1992, published 2004).

One test concerns the target ICAM-1/IgG chimera (UniProt P05362). As to the kind of experiment: adhesion of transfected CHO cells to immobilized chimera, with PMA.
Test [1] deals with LFA-1 (CD11a/CD18) on cells (human) (UniProt P20701). As to the kind of experiment: JY cell adhesion to shICAM-R, mAb 10 µg/ml.
The target is the same in test [2]. As to the kind of experiment: SKW3 cell adhesion to plate-bound shICAM-R, peptide 1-2 mg/ml.
The target is the same in test [3]. As to the kind of experiment: neutrophil adhesion to immobilized ICAM-R/Ig, mAb 15 µg/ml.

Chain of LFA-1 (CD11a/CD18) on cells (human) (P20701 26-1170, chain 1 of 2): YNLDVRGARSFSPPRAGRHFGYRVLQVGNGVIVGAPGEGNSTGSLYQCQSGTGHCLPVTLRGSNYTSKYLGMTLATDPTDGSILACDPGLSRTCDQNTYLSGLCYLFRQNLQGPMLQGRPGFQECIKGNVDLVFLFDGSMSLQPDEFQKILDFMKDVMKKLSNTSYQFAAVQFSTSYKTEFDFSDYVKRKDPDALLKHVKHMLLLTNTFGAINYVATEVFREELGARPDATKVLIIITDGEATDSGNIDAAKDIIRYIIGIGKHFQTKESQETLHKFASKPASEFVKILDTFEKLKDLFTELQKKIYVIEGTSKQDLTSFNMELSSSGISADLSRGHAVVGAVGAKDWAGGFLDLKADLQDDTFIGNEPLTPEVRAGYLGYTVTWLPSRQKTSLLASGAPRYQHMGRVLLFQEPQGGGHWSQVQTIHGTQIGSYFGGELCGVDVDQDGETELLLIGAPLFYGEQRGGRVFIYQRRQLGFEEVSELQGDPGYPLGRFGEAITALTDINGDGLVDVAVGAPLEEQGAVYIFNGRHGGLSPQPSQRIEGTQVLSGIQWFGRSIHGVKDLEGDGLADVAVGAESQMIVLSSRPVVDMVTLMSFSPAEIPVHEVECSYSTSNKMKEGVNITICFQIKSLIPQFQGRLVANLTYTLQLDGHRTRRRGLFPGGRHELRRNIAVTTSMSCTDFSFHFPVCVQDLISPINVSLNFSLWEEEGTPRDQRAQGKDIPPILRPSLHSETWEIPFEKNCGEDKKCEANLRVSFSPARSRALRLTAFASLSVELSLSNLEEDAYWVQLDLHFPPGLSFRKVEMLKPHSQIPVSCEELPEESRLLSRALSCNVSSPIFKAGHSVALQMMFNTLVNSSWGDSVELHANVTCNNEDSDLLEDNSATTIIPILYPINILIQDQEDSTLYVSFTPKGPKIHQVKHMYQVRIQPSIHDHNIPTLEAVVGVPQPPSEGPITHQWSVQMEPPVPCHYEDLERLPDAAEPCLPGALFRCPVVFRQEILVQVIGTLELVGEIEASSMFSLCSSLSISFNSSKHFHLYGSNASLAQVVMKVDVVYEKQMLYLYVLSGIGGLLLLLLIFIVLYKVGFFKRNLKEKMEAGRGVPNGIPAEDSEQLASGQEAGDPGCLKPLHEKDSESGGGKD
Chain of LFA-1 (CD11a/CD18) on cells (human) (P05107 23-769, chain 2 of 2, further chain): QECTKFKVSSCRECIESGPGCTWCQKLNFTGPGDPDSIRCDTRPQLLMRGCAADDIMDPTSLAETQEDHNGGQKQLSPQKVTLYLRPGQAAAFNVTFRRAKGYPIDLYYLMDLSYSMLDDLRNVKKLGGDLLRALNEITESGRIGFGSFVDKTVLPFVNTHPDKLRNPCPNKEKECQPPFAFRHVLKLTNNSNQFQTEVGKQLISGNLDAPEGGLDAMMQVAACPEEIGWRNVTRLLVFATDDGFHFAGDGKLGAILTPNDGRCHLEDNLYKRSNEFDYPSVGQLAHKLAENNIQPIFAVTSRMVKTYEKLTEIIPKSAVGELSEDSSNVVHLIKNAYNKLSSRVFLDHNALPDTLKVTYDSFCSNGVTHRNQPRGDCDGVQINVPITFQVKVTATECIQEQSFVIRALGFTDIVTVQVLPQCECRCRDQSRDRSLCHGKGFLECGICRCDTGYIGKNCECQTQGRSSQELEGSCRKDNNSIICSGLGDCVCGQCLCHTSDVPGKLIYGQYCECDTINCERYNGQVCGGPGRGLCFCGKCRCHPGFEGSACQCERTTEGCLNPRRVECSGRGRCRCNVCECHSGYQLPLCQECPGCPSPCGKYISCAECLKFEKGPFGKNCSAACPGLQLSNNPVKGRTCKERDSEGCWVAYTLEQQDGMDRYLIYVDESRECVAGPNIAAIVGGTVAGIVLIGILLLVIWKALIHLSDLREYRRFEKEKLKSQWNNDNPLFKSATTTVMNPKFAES
Chain of LFA-1 (CD11a/CD18) on cells (P20701 26-1170): as the sequence (P20701 26-1170, chain 1 of 2) above
Chain of LFA-1 (CD11a/CD18) on cells (P05107 23-769): as the sequence (P05107 23-769, chain 2 of 2, further chain) above
Chain of ICAM-1/IgG chimera (P05362 28-480 limits assumed, change not shown): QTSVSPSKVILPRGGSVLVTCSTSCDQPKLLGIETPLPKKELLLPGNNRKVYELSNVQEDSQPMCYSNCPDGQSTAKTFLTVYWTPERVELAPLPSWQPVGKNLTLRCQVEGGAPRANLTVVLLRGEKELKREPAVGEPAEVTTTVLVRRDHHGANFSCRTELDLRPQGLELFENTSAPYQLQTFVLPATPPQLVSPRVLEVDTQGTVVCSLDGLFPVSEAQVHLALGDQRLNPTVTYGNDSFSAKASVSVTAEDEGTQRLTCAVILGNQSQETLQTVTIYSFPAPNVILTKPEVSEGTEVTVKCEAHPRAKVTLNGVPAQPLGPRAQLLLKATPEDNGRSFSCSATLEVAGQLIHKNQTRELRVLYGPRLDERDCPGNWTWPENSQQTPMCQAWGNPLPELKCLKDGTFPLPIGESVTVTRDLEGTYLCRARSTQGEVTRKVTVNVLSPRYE

Take “LFA-1 (CD11a/CD18) on cells (from UniProt P20701 26-1170; P05107 23-769) (receptor; other documents disagree on this pair)”: the fold increase in binding with ICAM-1/IgG chimera lay within 2 to 3 fold.

Consider anti-CD18 monoclonal antibody 60.3, for which the Inhibition (%) of CD18-dependent JY cell binding in test [1] was determined as 100%.

In test [2], “ICAM-R domain 1 peptide NGSQI, residues 72-76” registered a % Inhibition of cell binding to shICAM-R of 26%.

anti-CD11a monoclonal antibody TS1/22 showed a % inhibition of neutrophil binding to ICAM-R in test [3] of 50%.
